Source: patent publication US20240190956A1 (published 2024)

B1: huMOV19-sSPDB-Compound A (antibody)
heavy: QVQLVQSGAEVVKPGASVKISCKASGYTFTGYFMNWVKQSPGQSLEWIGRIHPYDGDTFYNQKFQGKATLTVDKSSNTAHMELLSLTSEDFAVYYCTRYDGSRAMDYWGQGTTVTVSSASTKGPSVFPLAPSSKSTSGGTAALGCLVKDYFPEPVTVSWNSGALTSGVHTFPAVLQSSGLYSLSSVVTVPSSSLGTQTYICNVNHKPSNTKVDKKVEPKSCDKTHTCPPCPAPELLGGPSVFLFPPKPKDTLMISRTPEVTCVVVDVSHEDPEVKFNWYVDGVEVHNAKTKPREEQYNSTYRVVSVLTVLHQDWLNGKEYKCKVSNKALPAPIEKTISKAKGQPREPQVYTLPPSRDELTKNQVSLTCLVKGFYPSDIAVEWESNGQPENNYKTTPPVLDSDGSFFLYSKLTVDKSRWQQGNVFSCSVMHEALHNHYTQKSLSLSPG
light: DIVLTQSPLSLAVSLGQPAIISCKASQSVSFAGTSLMHWYHQKPGQQPRLLIYRASNLEAGVPDRFSGSGSKTDFTLTISPVEAEDAATYYCQQSREYPYTFGGGTKLEIKRTVAAPSVFIFPPSDEQLKSGTASVVCLLNNFYPREAKVQWKVDNALQSGNSQESVTEQDSKDSTYSLSSTLTLSKADYEKHKVYACEVTHQGLSSPVTKSFNRGEC
modifications: Compound A linked through a sulfo-SPDB linker to amino groups of lysine residues, positions not given; Compound A linked through a sulfo-SPDB linker to amino groups of lysine residues, positions not given; average 2.4 Compound A per antibody
B2: huMOV19-NTS #2-Linker1-Compound A (antibody)
heavy: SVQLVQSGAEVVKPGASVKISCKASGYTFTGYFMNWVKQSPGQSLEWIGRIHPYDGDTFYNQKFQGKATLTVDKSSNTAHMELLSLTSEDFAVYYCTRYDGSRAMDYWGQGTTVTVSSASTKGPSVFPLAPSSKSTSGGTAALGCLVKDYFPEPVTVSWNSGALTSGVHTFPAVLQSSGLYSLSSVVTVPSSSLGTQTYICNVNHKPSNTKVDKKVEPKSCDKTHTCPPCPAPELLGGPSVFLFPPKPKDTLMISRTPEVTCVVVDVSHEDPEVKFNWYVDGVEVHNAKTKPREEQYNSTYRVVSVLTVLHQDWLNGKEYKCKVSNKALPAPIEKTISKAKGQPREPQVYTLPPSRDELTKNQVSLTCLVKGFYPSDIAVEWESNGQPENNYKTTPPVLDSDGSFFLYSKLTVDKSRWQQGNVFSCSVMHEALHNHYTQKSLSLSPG
light: B1 light
modifications: N-terminal Ser oxidized to an aldehyde and linked through Linker1 to Compound A (sulfonated DGN462); two Compound A molecules per antibody
B3: huMOV19 (antibody)
heavy: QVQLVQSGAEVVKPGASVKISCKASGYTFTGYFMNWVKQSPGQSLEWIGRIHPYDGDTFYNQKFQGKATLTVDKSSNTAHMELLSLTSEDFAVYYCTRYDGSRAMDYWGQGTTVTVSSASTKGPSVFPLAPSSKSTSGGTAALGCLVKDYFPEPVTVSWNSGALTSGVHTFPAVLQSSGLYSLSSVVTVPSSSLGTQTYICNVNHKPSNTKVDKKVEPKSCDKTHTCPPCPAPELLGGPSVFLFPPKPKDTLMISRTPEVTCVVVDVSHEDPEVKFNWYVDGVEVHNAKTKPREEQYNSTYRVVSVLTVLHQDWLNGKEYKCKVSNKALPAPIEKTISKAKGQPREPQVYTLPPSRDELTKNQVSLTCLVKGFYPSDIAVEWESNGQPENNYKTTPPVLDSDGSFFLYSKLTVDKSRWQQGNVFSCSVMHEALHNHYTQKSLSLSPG
light: B1 light
B4: huMOV19-NTS #2 (antibody)
heavy: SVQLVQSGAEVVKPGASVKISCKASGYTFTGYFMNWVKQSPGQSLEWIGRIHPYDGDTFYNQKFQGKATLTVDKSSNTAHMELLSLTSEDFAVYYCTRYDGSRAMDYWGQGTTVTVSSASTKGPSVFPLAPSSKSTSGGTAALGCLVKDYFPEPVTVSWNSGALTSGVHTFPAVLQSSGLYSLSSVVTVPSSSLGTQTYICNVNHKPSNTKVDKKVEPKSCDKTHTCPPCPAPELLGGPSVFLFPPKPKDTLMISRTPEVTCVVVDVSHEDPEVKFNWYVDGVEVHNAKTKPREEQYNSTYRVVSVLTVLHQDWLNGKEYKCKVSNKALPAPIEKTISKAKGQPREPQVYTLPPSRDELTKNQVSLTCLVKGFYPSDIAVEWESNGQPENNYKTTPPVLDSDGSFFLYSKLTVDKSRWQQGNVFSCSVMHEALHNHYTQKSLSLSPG
light: B1 light

Biological target: folate receptor alpha (FR-α) (human, UniProt P15328 25-234)
Sequence (P15328 25-234): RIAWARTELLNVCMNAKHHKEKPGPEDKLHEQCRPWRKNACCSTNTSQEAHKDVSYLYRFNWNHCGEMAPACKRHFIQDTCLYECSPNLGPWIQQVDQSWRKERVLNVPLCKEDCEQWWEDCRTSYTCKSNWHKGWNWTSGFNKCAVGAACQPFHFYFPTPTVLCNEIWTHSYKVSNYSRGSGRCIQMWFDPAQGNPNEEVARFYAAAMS
Assay: FACS binding on T47D cells

EC50 [nM]	Binder
0.426	B1
0.881	B2
0.323	B3
0.243	B4
